Assays:
[1] = biological target: GST fusion of the VGLUT1 C-terminus lacking the first PP domain (rat); experiment: pull-down; GST fusions of the VGLUT1 C-terminus on glutathione sepharose beads, incubated with detergent-solubilized (2% TX-100) rat brain extract, RT 60 min; bound proteins by immunoblot, band intensity normalised to VG1 (Figs. 3C,D and 4B)
[2] = biological target: GST fusion of the VGLUT1 C-terminus lacking both PP domains (rat); experiment: as above
[3] = biological target: GST fusion of the VGLUT1 C-terminus lacking the second PP domain (rat); experiment: as above
[4] = biological target: GST fusion of the VGLUT1 C-terminus, SS/AA (rat) (UniProt Q62634); experiment: pull-down; 400 µg GST fusions of the VGLUT1 C-terminus on glutathione sepharose beads, rat brain extract in 100 mM Tris-HCl pH 7.5, 150 mM NaCl, 1 mM EGTA, 1% TX-100, 4°C 2 h; immunoblot (Fig. 6)
[5] = biological target: GST fusion of the VGLUT1 C-terminus, SS/DD (rat) (UniProt Q62634); experiment: as above
[6] = biological target: GST fusion of the SH3 domain of sorting nexin 9 (Panomics) (human) (UniProt Q9Y5X1); experiment: pull-down; GST fusions of SH3 or WW domains on glutathione sepharose beads, incubated with detergent-solubilized (2% TX-100) rat brain extract, RT 60 min; bound VGLUT1 by immunoblot, band intensity normalised to lysate
[7] = biological target: GST fusion of the VGLUT1 C-terminus lacking the first PP domain (rat); experiment: pull-down; GST fusions of the VGLUT1 C-terminus on glutathione sepharose beads, incubated with extracts of COS7 cells transfected with myc-Lyn (2% TX-100); detected with antibody to myc, band intensity normalised to VG1
[8] = biological target: GST fusion of the VGLUT1 C-terminus lacking both PP domains (rat); experiment: as above
[9] = biological target: GST fusion of the VGLUT1 C-terminus lacking the second PP domain (rat); experiment: as above
[10] = biological target: GST fusion of the VGLUT1 C-terminus, ΔWW/PAXA (rat); experiment: pull-down; GST fusions of the VGLUT1 C-terminus on glutathione sepharose beads, incubated with detergent-solubilized (2% TX-100) rat brain extract, RT 60 min; bound proteins by immunoblot, band intensity normalised to VG1 (Figs. 3C,D and 4B)
[11] = biological target: GST fusion of the VGLUT1 C-terminus, ΔWW/PAXY (rat); experiment: as above
[12] = biological target: GST fusion of the VGLUT1 C-terminus, ΔSH3/1,2,3 (rat); experiment: as above

myc-tagged Lyn, sequence (P25911 whole entry): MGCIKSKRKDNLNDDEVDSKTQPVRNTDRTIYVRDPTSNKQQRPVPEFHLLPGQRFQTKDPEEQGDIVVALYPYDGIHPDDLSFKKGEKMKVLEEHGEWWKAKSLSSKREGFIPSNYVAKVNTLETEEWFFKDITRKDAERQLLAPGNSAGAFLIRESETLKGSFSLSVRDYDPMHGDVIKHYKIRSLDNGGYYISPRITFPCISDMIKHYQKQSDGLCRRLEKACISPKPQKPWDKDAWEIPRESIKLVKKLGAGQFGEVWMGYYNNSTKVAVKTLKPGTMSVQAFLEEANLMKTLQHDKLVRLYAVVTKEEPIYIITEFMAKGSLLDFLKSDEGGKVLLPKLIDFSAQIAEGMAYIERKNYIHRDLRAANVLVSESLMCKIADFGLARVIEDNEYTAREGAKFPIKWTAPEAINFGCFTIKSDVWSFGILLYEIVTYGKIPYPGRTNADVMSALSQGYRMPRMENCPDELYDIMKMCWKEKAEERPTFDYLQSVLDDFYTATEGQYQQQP
Nedd4 from rat brain extract, sequence (Q62940 whole entry): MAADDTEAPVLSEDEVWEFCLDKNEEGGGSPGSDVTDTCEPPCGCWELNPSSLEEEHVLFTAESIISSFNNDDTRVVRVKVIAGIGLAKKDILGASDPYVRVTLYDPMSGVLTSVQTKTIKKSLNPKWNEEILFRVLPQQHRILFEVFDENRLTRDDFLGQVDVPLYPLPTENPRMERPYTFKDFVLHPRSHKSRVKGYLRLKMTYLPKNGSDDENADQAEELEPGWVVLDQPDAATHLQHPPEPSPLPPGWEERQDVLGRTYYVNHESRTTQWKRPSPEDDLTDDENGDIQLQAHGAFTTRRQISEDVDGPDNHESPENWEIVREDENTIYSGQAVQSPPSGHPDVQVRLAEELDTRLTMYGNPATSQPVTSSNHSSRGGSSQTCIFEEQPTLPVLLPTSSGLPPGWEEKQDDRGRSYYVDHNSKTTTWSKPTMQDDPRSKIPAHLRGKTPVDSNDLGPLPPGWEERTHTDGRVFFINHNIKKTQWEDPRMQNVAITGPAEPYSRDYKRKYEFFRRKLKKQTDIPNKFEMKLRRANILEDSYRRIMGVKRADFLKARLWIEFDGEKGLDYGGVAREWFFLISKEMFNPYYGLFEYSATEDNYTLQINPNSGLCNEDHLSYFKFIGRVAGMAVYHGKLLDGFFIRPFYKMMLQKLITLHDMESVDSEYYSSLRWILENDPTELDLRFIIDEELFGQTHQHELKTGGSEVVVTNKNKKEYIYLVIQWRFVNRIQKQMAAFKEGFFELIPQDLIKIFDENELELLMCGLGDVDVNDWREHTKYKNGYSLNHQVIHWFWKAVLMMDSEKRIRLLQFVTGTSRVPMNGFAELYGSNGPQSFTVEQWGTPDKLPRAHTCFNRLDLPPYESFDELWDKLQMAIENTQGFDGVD
clathrin adaptor protein AP-2 from rat brain extract, sequence (P18484 whole entry, looked up): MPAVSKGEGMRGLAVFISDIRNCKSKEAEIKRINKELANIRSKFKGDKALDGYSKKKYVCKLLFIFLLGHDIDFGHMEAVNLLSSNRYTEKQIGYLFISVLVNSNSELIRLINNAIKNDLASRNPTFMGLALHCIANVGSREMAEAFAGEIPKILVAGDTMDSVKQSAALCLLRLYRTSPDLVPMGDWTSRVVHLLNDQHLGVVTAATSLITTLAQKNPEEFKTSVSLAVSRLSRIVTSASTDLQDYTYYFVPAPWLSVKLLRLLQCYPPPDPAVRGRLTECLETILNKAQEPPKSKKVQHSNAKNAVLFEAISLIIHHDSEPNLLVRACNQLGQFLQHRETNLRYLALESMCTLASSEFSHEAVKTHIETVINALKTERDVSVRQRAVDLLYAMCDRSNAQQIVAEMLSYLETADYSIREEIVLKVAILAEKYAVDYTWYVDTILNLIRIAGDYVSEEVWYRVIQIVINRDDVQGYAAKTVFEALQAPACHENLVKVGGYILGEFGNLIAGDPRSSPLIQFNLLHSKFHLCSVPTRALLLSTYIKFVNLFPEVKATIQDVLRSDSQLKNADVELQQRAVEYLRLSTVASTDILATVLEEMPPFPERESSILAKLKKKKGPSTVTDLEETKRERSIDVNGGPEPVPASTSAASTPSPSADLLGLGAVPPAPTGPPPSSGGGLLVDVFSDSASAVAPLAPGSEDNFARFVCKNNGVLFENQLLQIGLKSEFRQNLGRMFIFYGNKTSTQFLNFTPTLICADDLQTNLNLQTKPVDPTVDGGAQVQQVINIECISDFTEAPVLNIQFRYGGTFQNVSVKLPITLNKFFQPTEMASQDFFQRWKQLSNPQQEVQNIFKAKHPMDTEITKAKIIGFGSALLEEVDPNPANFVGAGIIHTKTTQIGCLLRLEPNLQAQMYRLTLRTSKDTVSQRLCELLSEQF
GST fusion of the SH3 domain of sorting nexin 9 (Panomics) (human), sequence (Q9Y5X1 1-62): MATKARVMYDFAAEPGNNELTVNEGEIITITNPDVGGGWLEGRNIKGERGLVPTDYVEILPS

Question: For “ponsin/c-Cbl interacting protein CAP from rat brain extract (from UniProt P84109 1-35) (natural protein)”, which band intensity normalised to VG1 [1] is on record?
Answer: 2.24 a.u.

Question: What about the band intensity normalised to VG1 [2] of the same substance?
Answer: 0.225 a.u.

Question: And the band intensity normalised to VG1 [3]?
Answer: 0.062 a.u.

Question: “clathrin adaptor protein AP-2 from rat brain extract (from UniProt P18484 1-938) (complex)” was tested. Which band intensity (a.u.) [4] did it give?
Answer: 0.674 a.u.

Question: And the band intensity (a.u.) [5]?
Answer: 1.76 a.u.

Question: Which band intensity normalised to VG1 [1] does the source give for “Nedd4 from rat brain extract (from UniProt Q62940 1-887) (enzyme)” here?
Answer: 0.0459 a.u.

Question: What about the band intensity normalised to VG1 [2] of the same substance?
Answer: 0.0821 a.u.

Question: What about the band intensity normalised to VG1 [3] of the same substance?
Answer: 0.664 a.u.

Question: How did the band intensity normalised to lysate [6] turn out when “VGLUT1 from rat brain extract (from UniProt Q62634 1-560) (natural protein)” was run?
Answer: 0.111 a.u.

Question: “Nck from rat brain extract (natural protein)” was tested. Which band intensity normalised to VG1 [1] did it give?
Answer: 1.11 a.u.

Question: Which results are given for “myc-tagged Lyn (from UniProt P25911 1-512) (enzyme)”?
Answer: band intensity normalised to VG1 [7]: 1.12 a.u.; band intensity normalised to VG1 [8]: 0.0368 a.u.; band intensity normalised to VG1 [9]: 0.0282 a.u.

Question: Which band intensity normalised to VG1 [10] does the source give for “Atrophin Interacting Protein AIP4/Itch from rat brain extract (enzyme)” here?
Answer: 0.0669 a.u.

Question: What about the band intensity normalised to VG1 [11] of the same substance?
Answer: 0.119 a.u.

Question: What about the band intensity normalised to VG1 [3] of the same substance?
Answer: 0.822 a.u.

Question: What about the band intensity normalised to VG1 [12] of the same substance?
Answer: 0.99 a.u.

— publication PMC4198130
